Here are results for five substances from patent publication US20190250145A1.

Experiment [1] concerns the target I-IIC-CFluc (carboxyl terminal portion of luciferase attached to I-IIC domain of CaV1.2) [luciferase: P08659]. The experiment is described as follows: split firefly luciferase complementation in HEK cells.
Experiment [2] addresses endogenous β-subunit of mouse heart (CaVβ) (mouse) (UniProt Q8CC27). The experiment is described as follows: cell-based or functional assay.
Experiment [3] addresses GKC-CFluc (carboxyl terminal portion of luciferase attached to GKC) [luciferase: P08659]. The experiment is described as follows: split firefly luciferase complementation in HEK cells.
In experiment [4] the target is endogenous β subunits of guinea pig ventricular cardiomyocytes (guinea pig). Put plainly: cell-based or functional assay.

Sequence of NFluc-NSH3 (amino terminal portion of luciferase attached to NSH3) (P08659 1-416): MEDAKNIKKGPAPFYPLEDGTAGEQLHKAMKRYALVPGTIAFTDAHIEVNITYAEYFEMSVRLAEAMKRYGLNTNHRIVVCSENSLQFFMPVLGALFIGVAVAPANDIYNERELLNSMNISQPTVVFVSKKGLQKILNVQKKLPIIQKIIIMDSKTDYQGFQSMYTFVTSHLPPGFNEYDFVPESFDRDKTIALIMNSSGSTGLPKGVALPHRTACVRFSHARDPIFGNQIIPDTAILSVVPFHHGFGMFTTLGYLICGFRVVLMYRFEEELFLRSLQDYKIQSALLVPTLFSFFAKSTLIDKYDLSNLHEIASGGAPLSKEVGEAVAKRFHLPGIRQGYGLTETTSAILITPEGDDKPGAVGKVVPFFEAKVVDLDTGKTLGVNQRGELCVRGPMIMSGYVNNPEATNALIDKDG
Sequence of I-IIC-CFluc (carboxyl terminal portion of luciferase attached to I-IIC domain of CaV1.2) [luciferase: P08659] (P08659 398-550): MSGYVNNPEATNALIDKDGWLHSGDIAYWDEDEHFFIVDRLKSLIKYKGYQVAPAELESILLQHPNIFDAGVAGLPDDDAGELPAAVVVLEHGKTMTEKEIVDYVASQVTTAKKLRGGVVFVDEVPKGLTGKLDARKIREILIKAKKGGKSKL
Sequence of GKC-CFluc (carboxyl terminal portion of luciferase attached to GKC) [luciferase: P08659] (P08659 398-550): as above
Sequence of CaVB-NFluc (amino terminal portion of luciferase attached to CaVB) (P08659 2-416): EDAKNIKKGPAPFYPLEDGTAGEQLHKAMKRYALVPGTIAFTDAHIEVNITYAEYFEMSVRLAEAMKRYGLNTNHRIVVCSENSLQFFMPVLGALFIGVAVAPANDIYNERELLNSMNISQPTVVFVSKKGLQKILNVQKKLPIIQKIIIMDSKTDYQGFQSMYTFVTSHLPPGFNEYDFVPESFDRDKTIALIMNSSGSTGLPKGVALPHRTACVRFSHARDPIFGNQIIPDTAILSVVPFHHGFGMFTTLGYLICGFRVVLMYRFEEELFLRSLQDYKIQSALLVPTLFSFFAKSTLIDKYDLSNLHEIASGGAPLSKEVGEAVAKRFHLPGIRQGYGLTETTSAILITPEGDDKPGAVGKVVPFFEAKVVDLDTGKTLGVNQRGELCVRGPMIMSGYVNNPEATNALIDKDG

Turning to “CaVB-NFluc (amino terminal portion of luciferase attached to CaVB) (from UniProt P08659 2-416)”, in experiment [1], the bioluminescence signal, fold over negative control came to 15 fold.
In experiment [2], “N-terminal 3×FLAG-tagged dihydropyridine (DHP)-resistant (T1066Y/Q1070M) AID-mutant rabbit α1C (from UniProt P15381 1-2171)” registered an increase in cardiac contractility by 200 nM isoproterenol (Langendorff hearts, nisoldipine present) of 1.2 fold; an increase in contractility in response to isoproterenol (isolated hearts, nisoldipine present) of 0 to 25%; an increase in fractional shortening by isoproterenol (cardiomyocytes, nisoldipine present) of 25%.
In experiment [3], “NFluc-NSH3 (amino terminal portion of luciferase attached to NSH3) (from UniProt P08659 1-416)” registered a bioluminescence, fold over negative control cells of 70 fold.
Turning to YFP-tagged mutant (YWI/AAA) AID peptide, the increase in whole-cell current amplitude by 1 µM forskolin in experiment [4] lay in the range of 4 to 5 fold.
In experiment [2], “pseudo-wild-type (pWT) α1C: transgenic FLAG-tagged DHP-resistant α1C subunit with wild-type AID (from UniProt P15381 1-2171)” showed an increase in cardiac contractility by 200 nM isoproterenol (Langendorff hearts, nisoldipine present) of 3.3 fold; an increase in fractional shortening by isoproterenol (cardiomyocytes, nisoldipine present) of 100%; an increase of Ca2+ current by forskolin of 1.8 fold; an increase of nisoldipine-insensitive current by 200 nM isoproterenol of 1.9 fold. The shift of Vmid in the hyperpolarizing direction by 200 nM isoproterenol in experiment [2] came to 4.4 mV.
